We go through one substance from patent US20190315864A1.

For this test, the target named is Mouse CTLA4-Fc protein (mouse). Kind of test: ELISA, control VHH coated 0.5 µg/well, mouse CTLA4-Fc (biotinylated), SA-HRP; blank 0.027. For orientation: In an ELISA, binding on a coated surface is turned into a signal by an enzyme label.
Chain of Mouse CTLA4-Fc protein (mouse) (chain, as listed by the source limits assumed): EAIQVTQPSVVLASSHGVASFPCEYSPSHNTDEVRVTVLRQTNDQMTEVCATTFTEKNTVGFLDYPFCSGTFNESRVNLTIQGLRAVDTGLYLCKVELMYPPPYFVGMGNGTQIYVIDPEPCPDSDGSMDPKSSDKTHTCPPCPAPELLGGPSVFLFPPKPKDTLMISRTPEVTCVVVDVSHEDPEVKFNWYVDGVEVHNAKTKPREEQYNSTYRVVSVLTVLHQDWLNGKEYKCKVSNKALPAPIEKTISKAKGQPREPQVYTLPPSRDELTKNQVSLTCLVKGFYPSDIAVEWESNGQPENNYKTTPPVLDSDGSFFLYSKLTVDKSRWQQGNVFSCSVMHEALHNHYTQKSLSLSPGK

For “single domain antibody against other unrelated target (control) (VHH)”, the OD (against mouse CTLA4) was 0.026 OD405.
